Experimental data taken from the supplement of paper PMC7125110.
± gives the standard error. Fewer inactive variants are shown than the library holds.

B1: glmS ribozyme (parent)
chain: AUAAAAGCGCCAGAACUACAGAAAUGUAGUUGACGAGGAGGAGGUUUAUCGAAUUUUCGGCGGAUGCCUCCAAA

Variants of: B1
Experiment: self-cleavage kobs at 2500 uM GlcN6P; higher = faster cleavage; RNA array
Details: with glucosamine-6-phosphate
Method in brief: (§1)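 Sequenced MiSeq chips were the platform: E. coli RNA polymerase transcribed barcoded ribozyme variants on them in situ, and a hybridised Cy3 probe tracked these at 37 °C. After glucosamine-6-phosphate (40 μM to 10 mM) in HEPES/KCl/Mg(OAc)2 buffer was flowed in, tiles were imaged over ~14 h. Signals normalised to baseline and to non-cleaving reference variants were reduced to per-tile medians and fit to one- or two-exponential decays to obtain kobs. kcat and KM were derived through weighted Michaelis–Menten fits across concentrations.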

Variant | self-cleavage kobs at 2500 uM GlcN6P [s⁻¹]
U30C U31C A53U U55A | 0.00034 ± 7.2e-05
G44A A48G C67G | 8.88e-05 ± 2.9e-05
G9U G41C G59A C71U | < 1e-05
G37U G44U C70G | < 1e-05
A6U G35U G59U | < 1e-05
C8G A15U U55C | < 1e-05
A15G A33G A48C C61A | < 1e-05
C8G G35U A39C | < 1e-05
C8G G35A U65C | < 1e-05
A12U G13C U56G C67U | < 1e-05
G29C G43U G62C | < 1e-05
C10A G37A A53C | < 1e-05
A12G A14U G66A | 6.8e-05 ± 1.9e-05
G7U U49A U65G | < 1e-05
A12U A33U A42G G51C U55A C71G | < 1e-05
A33G G38U G44A C67G C71U | < 1e-05
A42U A53G C61G | < 1e-05
U30G G43U A52G C67A U69G | < 1e-05
U56A U57C C67A | 4.71e-05 ± 2e-05
C50U C58A C70G | 7.55e-05 ± 2.9e-05
G9C C11G C71U | < 1e-05
A15G A33U G40U G41A | < 1e-05
C50G U56G G59U | 8.66e-05 ± 3.9e-05
U31G G41A G63U | < 1e-05
C8A A48C U49A | < 1e-05

Variant | self-cleavage kobs at 2500 uM GlcN6P [s⁻¹]
G32A U69G C70G C71U | 0.00186 ± 0.00064
G32A G44U U49A G63A | < 1e-05
G7U U47G A52U | < 1e-05
U31G A33C G38C A39G G62A | < 1e-05
U30G A53C U54A | 0.000695 ± 0.00017
C8G A15G U30C A42G U45A U46G | < 1e-05
G7A G32U C58U C67U | < 1e-05
G35A C50G U54G A64C | 7.23e-05 ± 2.7e-05
C16U G37C G51C G59C G60C | < 1e-05
A12C A14G G40C U56G C68U | < 1e-05
A6G C34G G40A C67G C70U | < 1e-05
G59U G62C C71A | < 1e-05
U45G U57G C68A C70A | < 1e-05
C11G C50U C61U C70G | 0.000127 ± 3.7e-05
U47C C67G C70U | 0.000129 ± 4.1e-05
G35A G40U G51A U69G | < 1e-05
G29C G40A U56G | 4.42e-05 ± 1.1e-05
C8G C16G G40C | < 1e-05
G35C U46C A52C U54C | < 1e-05
C16G U30C A33C C68U | < 1e-05
C8G A15U U47G | < 1e-05
G13A U30C G59A | < 1e-05
A15G U30A G44U U45A | 0.000178 ± 5.5e-05
A12G G32U U45G G59U | < 1e-05
G44C A53U U54G | 7.38e-05 ± 2e-05

Variant | self-cleavage kobs at 2500 uM GlcN6P [s⁻¹]
G35A U69C | < 1e-05
C16A G59U A64U C67G | < 1e-05
G37A A53U U55G | 0.000444 ± 9.3e-05
A36U G38C U69C | < 1e-05
G13C A33G G35A A48G A64G | < 1e-05
U47A A53G C70A | 0.000177 ± 4e-05
A39C G59A G62C | < 1e-05
C8U A42G G43U U49G | < 1e-05
G9A G37C G38C | < 1e-05
C11U U54C C67A | 0.00025 ± 8e-05
A14G A36G C58G | < 1e-05
U30C A42C U46A | < 1e-05
A6G C16A C34A A36U G43U | < 1e-05
G7C C16A G43C U45G C71U | < 1e-05
G9C G40U G41U U45G | < 1e-05
G32C A39U C50G A52C U57A A64U | < 1e-05
G41A A42U G62A | < 1e-05
A15U A39G G51A | < 1e-05
A12U A33C G43A C67U | < 1e-05
A33C G40U G51U U54A | < 1e-05
G38C A53U | < 1e-05
G37A G40C A42G | 0.000126 ± 4.4e-05
G38A G51C A52U G62A | < 1e-05
C10U G29C G62C | < 1e-05
A48G U69G | 0.000101 ± 3.7e-05

Variant | self-cleavage kobs at 2500 uM GlcN6P [s⁻¹]
A14U C50A C71A | 4.46e-05 ± 2.1e-05
G9U C50A G51U C68G | 0.00198 ± 0.00067
C11G A15U A42U U46C | < 1e-05
C16U C34U U47C G59U C71U | < 1e-05
C8A A36G A53G | < 1e-05
C16U G43U U45G | 0.00141 ± 0.00031
G37C C67U C71A | 5.9e-05 ± 2.4e-05
A39G U45A A64U | 0.000381 ± 0.00012
G37C G41C U47C G59U | < 1e-05
G7A G9A G38A U65G | < 1e-05
A14U U30G G41U | 0.000233 ± 7.4e-05
A15C A39U U49A C50U A52G A53C | < 1e-05
A14C A15C G38U | < 1e-05
A6G G43U G44A A48U G63A | < 1e-05
A42C U65C C71G | < 1e-05
A12G A42C G59U G63U | < 1e-05
C11U G29A G38U U47C | < 1e-05
G7U C10G G43U | < 1e-05
A48C U55C G63U | < 1e-05
G7A A12C A15U G41U | < 1e-05
U31C G32C A39G | 0.000381 ± 0.00015
A15G A33C U45A | 0.000135 ± 4.1e-05
G38A C50G A52G | 4.75e-05 ± 1.6e-05
U45A U47G G51U A64G U65G | < 1e-05

Variants of: B1
Experiment: self-cleavage kobs at 10000 uM GlcN6P; higher = faster cleavage; RNA array
Details: with glucosamine-6-phosphate
Method in brief: as §1

Variant | self-cleavage kobs at 10000 uM GlcN6P [s⁻¹]
G9U G41C G59A C71U | < 1e-05
A6G G29U G43C C61U C67U | < 1e-05
A12G G51U C58G | < 1e-05
A6G A33C A64G | < 1e-05
C16U G26U U31C | 5.34e-05 ± 1.7e-05
G9U A14C A36C U46A | < 1e-05
A48C C61G C70G | < 1e-05
C8G A14G A33U | < 1e-05
G13C A14G U69G | 3.8e-05 ± 1.6e-05
G7U G13U G63U | < 1e-05
G37C U46A G60U | < 1e-05
A33C G37U | < 1e-05
A64C U65G | 4.42e-05 ± 1.1e-05
U17A A18C C19A A20G A52G U57G C67A | 8.22e-05 ± 1.7e-05
A15G A33U G40U G41A | < 1e-05
G40A C58U C67G C71G | < 1e-05
C11G U31G G35U A36U U49C A52U | < 1e-05
G26U U30G C71U | 0.000403 ± 6.4e-05
A12U G29C G41A | 0.000129 ± 4.9e-05
A14C U45C A64G G66A | 0.000542 ± 9.2e-05
A48U A52C G60A A64C | < 1e-05
C16U U30G G59C | < 1e-05
C10A C58G G60A U69G | 5.7e-05 ± 1.6e-05
G13A U57G C70U | 3.53e-05 ± 1.7e-05
C11G C50U C61U C70G | 3.43e-05 ± 1.4e-05

Variant | self-cleavage kobs at 10000 uM GlcN6P [s⁻¹]
A36C G43U U56C U57A C67G | < 1e-05
A12G G51C G60U | < 1e-05
U47C C67G C70U | 8.24e-05 ± 1.8e-05
C16U U54A C70G | 0.000121 ± 2.5e-05
A20U G32C | 7.58e-05 ± 2.1e-05
A12U C16G G29A C67G | 0.000109 ± 2.3e-05
G26U U57G | 5.83e-05 ± 2e-05
C8G G32U G43A C68G | < 1e-05
G35A U69C | < 1e-05
A14U G37C A64C | < 1e-05
A14G A15U G32A | 0.00264 ± 0.00069
G41U A53G C68U | 4.96e-05 ± 1.3e-05
G35C C67U | 0.00429
G35A G43C C67G C68G | 6.9e-05 ± 2e-05
U30G U45A C67A | 0.00242 ± 0.00045
G40U G43C U65A | < 1e-05
G7A G9A A53G G60A U65A C67A | 0.000102 ± 2.7e-05
A33C G38U G41U G43A U56A | < 1e-05
U30C G32A C70G | 7.6e-05 ± 1.7e-05
C10G C16G A53G C68U | < 1e-05
C11A A12C U57G C67G | 3.81e-05 ± 1.5e-05
G13A C58U | 8.94e-05 ± 8.9e-06
A6U A36C C58G | < 1e-05
A36U G40A G63U | < 1e-05
G38C A53U | < 1e-05

Variant | self-cleavage kobs at 10000 uM GlcN6P [s⁻¹]
G9U A15U A42C U57G | < 1e-05
C16A U46C U55C | 7.09e-05 ± 1.6e-05
A48G U69G | 3.66e-05 ± 1.3e-05
G13C G38U A48U C50A | < 1e-05
A39G U45A A64U | 0.000499 ± 0.00011
G7A G9A G38A U65G | < 1e-05
C8A G41U U46G G63A | < 1e-05
C11G U31C A36C | < 1e-05
C8U C34A A53C C71A | < 1e-05
C19A G35C U47C U49G G51U C68U C71U | < 1e-05
G9C G43C C67U | < 1e-05
A12C U31A A42G A52G | 0.000429 ± 9.6e-05
C16U G38U A52C C58A | < 1e-05
G44U A64U C67G | 6.97e-05 ± 1.6e-05
G44C U45A U46G | 3.99e-05 ± 2e-05
A48U C67G | 4.58e-05 ± 8.4e-06
C8A G29U A52U U55A C71G | < 1e-05
A33C G51A A64U | < 1e-05
A6C U31C G63U C71G | < 1e-05
A39G C58G C67U | 3.44e-05 ± 1.2e-05
A53U C70G C71G | 2.8e-05 ± 1.2e-05
G13C A33G G41U | < 1e-05
A12U G37C U45A A48U C68U | < 1e-05
